Results on one compound are retold here after paper PMC9127807, “Echinocandins Localized to the Target-Harboring Cell Surface Are Not Degraded but Those Entering the Vacuole Are” (ACS Chemical Biology, 2022).

The test system of data set [1] is C. albicans SC5314 cell lysate. As to conditions: incubated with lysate of C. albicans SC5314 in buffer for 24 h; RP-HPLC.
Experimental: C. albicans SC5314 cells were streaked from glycerol stocks onto YPAD agar plates and grown for 24 h at 30 °C. Colonies were grown in tubes in 3 mL of YPAD broth for 24 h at 30 °C with shaking. Cultures were diluted 1:50 and incubated in 5 mL of YPAD broth for 3 h at 30 °C with shaking until log-phase growth was observed. Cultures were then centrifuged (4000 rpm, 3 min), washed with PBS buffer, and resuspended in 1 mL of PBS buffer or YPAD. Cells were incubated with TMR-based probes (1 or 3) at a final concentration of 10 μM at 30 °C with shaking in the dark for 24 h. After washing three times with PBS, cells were resuspended in 75 μL of TNE buffer (10 mM Tris, 100 mM NaCl, and 1 mM ethylenediaminetetraacetic acid, pH 8.0) in a 1.5 mL Eppendorf tube, and 0.5 mm diameter beads were added to the yeast solution. The mixture was agitated on a vortex at maximum speed for 5 min. […] The samples were analyzed using analytical reverse-phase HPLC at a 550 nm wavelength. HPLC conditions: mobile phase: acetonitrile in H2O (containing 0.1% trifluoroacetic acid (v/v)), gradient from 10 to 90%; flow rate: 1 mL/min; absorbance wavelength: 550 nm. […] The percentages of intact echinocandin were determined using the area calculation function available in the Hitachi Primaide Software and are presented as means (two replicates) ± standard deviation (SD).
The subject of data set [2] is C. albicans SC5314 cells. As to conditions: for percentage degraded: 24 h, 10 μM, 30 °C, RP-HPLC of lysates.
Experimental: C. albicans SC5314 cells were streaked from glycerol stocks onto YPAD agar plates and grown for 24 h at 30 °C. Colonies were grown in tubes in 3 mL of YPAD broth for 24 h at 30 °C with shaking. Cultures were diluted 1:50 and incubated in 5 mL of YPAD broth for 3 h at 30 °C with shaking until log-phase growth was observed. Cultures were then centrifuged (4000 rpm, 3 min), washed with PBS buffer, and resuspended in 1 mL of PBS buffer or YPAD. Cells were incubated with TMR-based probes (1 or 3) at a final concentration of 10 μM at 30 °C with shaking in the dark for 24 h. After washing three times with PBS, cells were resuspended in 75 μL of TNE buffer (10 mM Tris, 100 mM NaCl, and 1 mM ethylenediaminetetraacetic acid, pH 8.0) in a 1.5 mL Eppendorf tube, and 0.5 mm diameter beads were added to the yeast solution. The mixture was agitated on a vortex at maximum speed for 5 min. Next, 200 μL of 2% Triton X-100 in TNE buffer (v/v) was added to the agitated solution, and then the mixture was sonicated for 15 min. To clarify the yeast lysate, the mixture was centrifuged twice (16 000g, 20 min), and the supernatant was removed and filtered using a 0.22 μm syringe filter. The samples were analyzed using analytical reverse-phase HPLC at a 550 nm wavelength. HPLC conditions: mobile phase: acetonitrile in H2O (containing 0.1% trifluoroacetic acid (v/v)), gradient from 10 to 90%; flow rate: 1 mL/min; absorbance wavelength: 550 nm. Each sample was tested in two independent sets of experiments. The percentages of intact echinocandin were determined using the area calculation function available in the Hitachi Primaide Software and are presented as means (two replicates) ± standard deviation (SD).

Molecules are shown by their SMILES. Values joined by “and” are separate entries in the source; they are usually repeats but may differ in a detail not shown here. Equal values may be shown once. Read-outs that look alike come from different tables or passages of the source.

Regarding `CC[C@H](C)C[C@H](C)CCCCCCCCC(=O)N[C@H]1C[C@@H](O)[C@@H](NCCN)NC(=O)[C@@H]2[C@@H](O)CCN2C(=O)[C@H]([C@H](O)CCN)NC(=O)[C@H]([C@H](O)[C@@H](O)c2ccc(OCc3cn(CCCNC(=O)c4ccc(-c5c6ccc(=[N+](C)C)cc-6oc6cc(N(C)C)ccc56)c(C(=O)[O-])c4)nn3)cc2)NC(=O)[C@@H]2C[C@@H](O)CN2C(=O)[C@H]([C@@H](C)O)NC1=O` [Probe 1], the percentage intact in data set [1] is 78% and ~80%; in data set [2] (control: 5 min incubation with the cells in PBS, RP-HPLC), approximately 80%. Also, the percentage degraded entry in data set [2] (cells in nutrient-free PBS buffer) is listed as “approximately 70%”; in data set [2] (cells in nutrient-rich YPAD medium), “approximately 40%”.
